Assay results: article PMC4357008

Legend:
[1] = confocal imaging, filopodia shaft/cell body ratio, Lck-mCherry normalised; settings: glycan lost; control: mEGFP-EAAT2 wild type
[2] = confocal imaging, filopodia tip/shaft intensity ratio, COS-7; settings: glycan lost; control: mEGFP-EAAT2 wild type

B1: EAAT2: EAAT2ΔG (protein)
parent chain: MASTEGANNMPKQVEVRMHDSHLSSDEPKHRNLGMRMCDKLGKNLLLSLTVFGVILGAVCGGLLRLASPIHPDVVMLIAFPGDILMRMLKMLILPLIISSLITGLSGLDAKASGRLGTRAMVYYMSTTIIAAVLGVILVLAIHPGNPKLKKQLGPGKKNDEVSSLDAFLDLIRNLFPENLVQACFQQIQTVTKKVLVAPPSEEANTTKAVISMLNETMNEAPEETKIVIKKGLEFKDGMNVLGLIGFFIAFGIAMGKMGEQAKLMVEFFNILNEIVMKLVIMIMWYSPLGIACLICGKIIAIKDLEVVARQLGMYMITVIVGLIIHGGIFLPLIYFVVTRKNPFSFFAGIFQAWITALGTASSAGTLPVTFRCLEDNLGIDKRVTRFVLPVGATINMDGTALYEAVAAIFIAQMNGVILDGGQIVTVSLTATLASIGAASIPSAGLVTMLLILTAVGLPTEDISLLVAVDWLLDRMRTSVNVVGDSFGAGIVYHLSKSELDTIDSQHRMQEDIEMTKTQSIYDDKNHRESNSNQCVYAAHNSVVIDECKVTLAANGKSADCSVEEEPWKREK
In the case of B1, the “localisation_or_trafficking, other: shaft/cell body density ratio” value [1] is reported as “decreases, 1.7 vs 2.7” and the “localisation_or_trafficking, other: tip/shaft density ratio” value [2] is reported as “increases, 2.8 vs 1.5”.
